Source: patent US10254283

Columns and labels:
[1] = molecular target: Flag-eIF4B (wild type)
[2] = molecular target: recombinant Histone H3.1 (New England BioLabs, M2503S)
[3] = molecular target: Flag-eIF4B (S406A)
Sequence of Flag-eIF4B (S406A) (chain, as listed by the source S406A): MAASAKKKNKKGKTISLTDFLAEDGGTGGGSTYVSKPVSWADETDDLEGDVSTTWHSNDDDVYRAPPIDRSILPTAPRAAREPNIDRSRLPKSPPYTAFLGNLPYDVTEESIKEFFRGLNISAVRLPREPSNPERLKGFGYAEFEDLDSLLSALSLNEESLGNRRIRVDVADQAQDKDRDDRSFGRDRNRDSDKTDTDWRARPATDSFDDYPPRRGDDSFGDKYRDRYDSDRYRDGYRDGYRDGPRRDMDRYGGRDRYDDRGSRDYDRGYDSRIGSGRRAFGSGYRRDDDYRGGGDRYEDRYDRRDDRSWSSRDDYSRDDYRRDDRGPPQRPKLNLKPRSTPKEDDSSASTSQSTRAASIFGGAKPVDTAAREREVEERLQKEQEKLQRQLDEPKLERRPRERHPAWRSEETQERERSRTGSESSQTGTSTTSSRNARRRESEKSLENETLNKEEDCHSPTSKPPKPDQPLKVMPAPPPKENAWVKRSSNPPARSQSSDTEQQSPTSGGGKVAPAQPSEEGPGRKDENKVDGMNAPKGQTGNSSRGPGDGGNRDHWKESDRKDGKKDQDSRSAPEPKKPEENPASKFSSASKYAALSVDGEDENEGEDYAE

Sequence of Flag-eIF4B (wild type) (chain, as listed by the source): as the sequence (chain, as listed by the source S406A) above, with A406S counted along it

B1: recombinant MELK (kinase domain) (protein)
chain: MKDYDELLKYYELHETIGTGGFAKVKLACHILTGEMVAIKIMDKNTLGSDLPRIKTEIEALKNLRHQHICQLYHVLETANKIFMVLEYCPGGELFDYIISQDRLSEEETRVVFRQIVSAVAYVHSQGYAHRDLKPENLLFDEYHKLKLIDFGLCAKPKGNKDYHLQTCCGSLAYAAPELIQGKSYLGSEADVWSMGILLYVLMCGFLPFDDDNVMALYKKIMRGKYDVPKWLSPSSILLLQQMLQVDPKKRISMKNLLNHPWIMQDYNYPVEWQSKNPFIHLDDDCVTELSVHHRNNRQTMEDLISLWQYDHLTATYLLLLAKKARGKPVRLRLSSFSCG
In the case of B1, the “in vitro kinase assay, phosphorylation of eIF4B at Ser406 (immunoblot)” value [1] is reported as “Ser406, but not Ser422, of human eIF4B was readily phosphorylated by full-length MELK or the kinase domain of MELK”, the “in vitro kinase assay, phosphorylation of eIF4B at Ser422 (immunoblot)” value [1] is reported as “MELK does not phosphorylates eIF4B at S422 in vitro” and the “in vitro kinase assay, phosphorylation of Histone H3 at Thr3, Ser10 and Thr11 (immunoblot)” value [2] is reported as “Thr3, Ser10, and Thr11 of human Histone H3 were readily phosphorylated by the kinase domain of MELK”. The “in vitro kinase assay, phosphorylation of eIF4B at S406 (immunoblot)” value [3] was “This phosphorylation was abolished when wild type (wt) eIF4B was replaced with a mutant eIF4B (S406A)”.
